# Legend:
# [1] = molecular target: human rod outer segment guanylate cyclase 1 (ROS-GC1), mutant P575L (human) (UniProt Q02846)
# [2] = molecular target: human rod outer segment guanylate cyclase 1 (ROS-GC1), wildtype (human) (UniProt Q02846)
"EC50 of guanylate cyclase activation (cGMP produced) with 0–20 μM Ca2+-free, Mg2+-bound GCAP1, HEK cell membranes, 30 min [1] [µM]","EC50 of guanylate cyclase activation (cGMP produced) with 0–20 μM Ca2+-free, Mg2+-bound GCAP1, HEK cell membranes, 30 min [2] [µM]","EC50 of guanylate cyclase activation (cGMP produced) with 0–20 μM Ca2+-free, Mg2+-bound GCAP2, HEK cell membranes, 30 min [1] [µM]","EC50 of guanylate cyclase activation (cGMP produced) with 0–20 μM Ca2+-free, Mg2+-bound GCAP2, HEK cell membranes, 30 min [2] [µM]",Binder
3.32,2.93,,,"bovine guanylate cyclase-activating protein 1 (GCAP1), D6S mutant, myristoylated (natural protein, myristoylated (degree of myristoylation typically higher than 90%)) MGNIMSGKSVEELSSTECHQWYKKFMTECPSGQLTLYEFRQFFGLKNLSPWASQYVEQMFETFDFNKDGYIDFMEYVAALSLVLKGKVEQKLRWYFKLYDVDGNGCIDRDELLTIIRAIRAINPCSDSTMTAEEFTDTVFSKIDVNGDGELSLEEFMEGVQKDQMLLDTLTRSLDLTRIVRRLQNGEQDEEGASGRETEAAEADG"
,,7.44,8.34,"bovine guanylate cyclase-activating protein 2 (GCAP2), myristoylated (natural protein, myristoylated (degree of myristoylation typically higher than 90%)) MGQQFSWEEAEENGAVGAADAAQLQEWYKKFLEECPSGTLFMHEFKRFFKVPDNEEATQYVEAMFRAFDTNGDNTIDFLEYVAALNLVLRGTLEHKLKWTFKIYDKDRNGCIDRQELLDIVESIYKLKKACSVEVEAEQQGKLLTPEEVVDRIFLLVDENGDGQLSLNEFVEGARRDKWVMKMLQMDLNPSSWISQQRRKSAMF"

# Source: publication PMC3935488
